What was measured:
HeLa Kyoto [1] = assay: solubility in G1/S (NP-40 vs SDS abundance) (log2 ratio); higher = more soluble; settings: cell cycle stage: G1/S
HeLa Kyoto [2] = assay: solubility change mitosis vs G1/S (difference of NP-40 vs SDS log2 ratios) (log2 ratio difference); higher = more soluble in mitosis
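Wherever solubility change mitosis vs G1/S (difference of NP-40 vs SDS log2 ratios) is given: synchronized HeLa Kyoto cells (double thymidine block for G1/S, nocodazole release for mitosis), protein amounts in NP-40 versus SDS lysates quantified by mass spectrometry, three biological replicates.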
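Wherever solubility in G1/S (NP-40 vs SDS abundance) is given: HeLa Kyoto cells arrested at G1/S by double thymidine block, proteins quantified by TMT10plex mass spectrometry in mild NP-40 versus SDS extracts, three biological replicates.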

MGLSTVPDLLLPLVLLELLVGIYPSGVIGLVPHLGDREKRDSVCPQGKYIHPQNNSICCTKCHKGTYLYNDCPGPGQDTDCRECESGSFTASENHLRHCLSCSKCRKEMGQVEISSCTVDRDTVCGCRKNQYRHYWSENLFQCFNCSLCLNGTVHLSCQEKQNTVCTCHAGFFLRENECVSCSNCKKSLECTKLCLPQIENVKGTEDSGTTVLLPLVIFFGLCLLSLLFIGLMYRYQRWKSKLYSIVCGKSTPEKEGELEGTTTKPLAPNPSFSPTPGFTPTLGFSPVPSSTFTSSSTYTPGDCPNFAAPRREVAPPYQGADPILATALASDPIPNPLQKWEDSAHKPQSLDTDDPATLYAVVENVPPLRWKEFVRRLGLSDHEIDRLELQNGRCLREAQYSMLATWRRRTPRREATLELLGRVLRDMDLLGCLEDIEEALCGPAALPPAPSLLR [TNFRSF1A]
solubility in G1/S (log2) (HeLa Kyoto [1]): -0.165
solubility change mitosis (log2) (HeLa Kyoto [2]): -0.132

MMWRPSVLLLLLLLRHGAQGKPSPDAGPHGQGRVHQAAPLSDAPHDDAHGNFQYDHEAFLGREVAKEFDQLTPEESQARLGRIVDRMDRAGDGDGWVSLAELRAWIAHTQQRHIRDSVSAAWDTYDTDRDGRVGWEELRNATYGHYAPGEEFHDVEDAETYKKMLARDERRFRVADQDGDSMATREELTAFLHPEEFPHMRDIVIAETLEDLDRNKDGYVQVEEYIADLYSAEPGEEEPAWVQTERQQFRDFRDLNKDGHLDGSEVGHWVLPPAQDQPLVEANHLLHESDTDKDGRLSKAEILGNWNMFVGSQATNYGEDLTRHHDEL [RCN3]
solubility in G1/S (log2) (HeLa Kyoto [1]): 0.0765
solubility change mitosis (log2) (HeLa Kyoto [2]): 0.262

MEKMSRVTTALGGSVLTGRTMHCHLDAPANAISVCRDAAQVVVAGRSIFKIYAIEEEQFVEKLNLRVGRKPSLNLSCADVVWHQMDENLLATAATNGVVVTWNLGRPSRNKQDQLFTEHKRTVNKVCFHPTEAHVLLSGSQDGFMKCFDLRRKDSVSTFSGQSESVRDVQFSIRDYFTFASTFENGNVQLWDIRRPDRCERMFTAHNGPVFCCDWHPEDRGWLATGGRDKMVKVWDMTTHRAKEMHCVQTIASVARVKWRPECRHHLATCSMMVDHNIYVWDVRRPFVPAAMFEEHRDVTTGIAWRHPHDPSFLLSGSKDSSLCQHLFRDASQPVERANPEGLCYGLFGDLAFAAKESLVAAESGRKPYTGDRRHPIFFKRKLDPAEPFAGLASSALSVFETEPGGGGMRWFVDTAERYALAGRPLAELCDHNAKVARELGRNQVAQTWTMLRIIYCSPGLVPTANLNHSVGKGGSCGLPLMNSFNLKDMAPGLGSETRLDRSKGDARSDTVLLDSSATLITNEDNEETEGSDVPADYLLGDVEGEEDELYLLDPEHAHPEDPECVLPQEAFPLRHEIVDTPPGPEHLQDKADSPHVSGSEADVASLAPVDSSFSLLSVSHALYDSRLPPDFFGVLVRDMLHFYAEQGDVQMAVSVLIVLGERVRKDIDEQTQEHWYTSYIDLLQRFRLWNVSNEVVKLSTSRAVSCLNQASTTLHVNCSHCKRPMSSRGWVCDRCHRCASMCAVCHHVVKGLFVWCQGCSHGGHLQHIMKWLEGSSHCPAGCGHLCEYS [WDR24]
solubility in G1/S (log2) (HeLa Kyoto [1]): -0.232
solubility change mitosis (log2) (HeLa Kyoto [2]): -0.106

MAAATLTSKLYSLLFRRTSTFALTIIVGVMFFERAFDQGADAIYDHINEGKLWKHIKHKYENK [UQCR10]
solubility in G1/S (log2) (HeLa Kyoto [1]): -0.233
solubility change mitosis (log2) (HeLa Kyoto [2]): 0.0588

From the supplement of paper PMC5998384
